In paper PMC3281842, “Crystal Structure of TDRD3 and Methyl-Arginine Binding Characterization of TDRD3, SMN and SPF30” (PLoS ONE, 2012):
Square brackets hold non-standard residues; d marks the D form. Ends that are not written are not given here. Arg(Me2a) = CN(C)C(=N)NCCC[C@H](N)C(=O)O; Arg(Me2s) = CN=C(NC)NCCC[C@H](N)C(=O)O; Arg(Me) = CNC(=N)NCCC[C@H](N)C(=O)O

T1: SPF30 (aa 65–150) (human, UniProt O75940 65-150)
T1 construct: Splicing factor 30 kDa (SPF30, SMNDC1), human, residues 65-150, covers the Tudor domain; cloned into the pET28-MHL vector; also called Splicing factor 30 kDa; SMNDC1; source: E. coli BL21 (DE3), purified (Ni-NTA, size exclusion chromatography)
T1 sequence (looked up): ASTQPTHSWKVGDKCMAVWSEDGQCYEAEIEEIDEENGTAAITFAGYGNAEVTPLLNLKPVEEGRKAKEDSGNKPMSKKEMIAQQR

T2: SND1 (aa 650–910) (UniProt Q7KZF4 650-910)
T2 construct: SND1, residues 650-910, extended Tudor domain; also called extended Tudor domain of SND1
T2 sequence (looked up): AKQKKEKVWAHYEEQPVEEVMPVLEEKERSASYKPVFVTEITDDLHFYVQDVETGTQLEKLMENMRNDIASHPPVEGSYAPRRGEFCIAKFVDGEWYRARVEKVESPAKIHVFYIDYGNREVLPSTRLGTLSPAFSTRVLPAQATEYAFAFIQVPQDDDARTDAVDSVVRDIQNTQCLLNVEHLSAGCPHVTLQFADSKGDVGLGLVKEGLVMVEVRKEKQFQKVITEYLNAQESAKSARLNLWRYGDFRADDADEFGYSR

B1: PIWIL1_R4me2a peptide (TGRme2aARARA) (peptide)
peptide: TG[Arg(Me2a)]ARARA
notes: N-terminal GAR motif stretch of PIWIL1, R4 asymmetrically dimethylated; also called PIWIL1_R4me2a peptide of the ITC measurement; source: synthetic peptide (Tufts University Core Services)
B2: PIWIL1-R4me2s (peptide)
peptide: TG[Arg(Me2s)]ARARARGRARGQE
modifications: also: fluorescein label, position not given here
notes: N-terminal GAR motif stretch of PIWIL1, R4 symmetrically dimethylated; also called symmetrical dimethylated peptide of the PIWIL1 protein; source: synthetic peptide (Tufts University Core Services)
B3: PIWIL1-R4un (peptide)
peptide: TGRARARARGRARGQE
modifications: also: fluorescein label, position not given here
notes: N-terminal GAR motif stretch of PIWIL1, unmethylated; also called unmethylated PIWIL1 peptide; source: synthetic peptide (Tufts University Core Services)
B4: PIWIL1-R4me2a (peptide)
peptide: TG[Arg(Me2a)]ARARARGRARGQE
modifications: also: fluorescein label, position not given here
notes: N-terminal GAR motif stretch of PIWIL1, R4 asymmetrically dimethylated; also called asymmetrical dimethylated PIWIL1 peptide; source: synthetic peptide (Tufts University Core Services)
B5: SmD3RSDMA (peptide)
peptide: GGRG[Arg(Me2s)]GRG
modifications: also: fluorescein label, position not given here
notes: GAR motif peptide named after SmD3; also called SmD3 peptide; source: synthetic peptide (Tufts University Core Services)
B6: PIWIL1-R4me1 (peptide)
peptide: TG[Arg(Me)]ARARARGRARGQE
modifications: also: fluorescein label, position not given here
notes: N-terminal GAR motif stretch of PIWIL1, R4 monomethylated; also called monomethylated PIWIL1 peptide; source: synthetic peptide (Tufts University Core Services)
B7: H3R2me2s (peptide)
peptide: A[Arg(Me2s)]TKQTARKSY
modifications: also: fluorescein label, position not given here
notes: histone H3 N-terminal tail; C-terminal tyrosine printed at the end of the peptide; also called histone H3R2 peptide, symmetrically dimethylated; source: synthetic peptide (Tufts University Core Services)
B8: H3R2me1 (peptide)
peptide: A[Arg(Me)]TKQTARKSY
modifications: also: fluorescein label, position not given here
notes: histone H3 N-terminal tail; C-terminal tyrosine printed at the end of the peptide; also called histone H3R2 peptide, monomethylated; source: synthetic peptide (Tufts University Core Services)
B9: PGM(SmB214SD) (peptide)
peptide: PPGM[Arg(Me2s)]PPPPG
modifications: also: fluorescein label, position not given here
notes: PGM motif stretch of the splicing protein SmB; also called sDMA PGM motif peptide from SmB; source: synthetic peptide (Tufts University Core Services)
B10: PGM(SmB221SD) (peptide)
peptide: PPGM[Arg(Me2s)]GPPP
modifications: also: fluorescein label, position not given here
notes: as for B9
B11: H3R2me2a (peptide)
peptide: A[Arg(Me2a)]TKQTARKSY
modifications: also: fluorescein label, position not given here
notes: histone H3 N-terminal tail; C-terminal tyrosine printed at the end of the peptide; also called histone H3R2 peptide, asymmetrically dimethylated; source: synthetic peptide (Tufts University Core Services)
B12: PGM(SmB165SD) (peptide)
peptide: YPPG[Arg(Me2s)]GGPPP
modifications: also: fluorescein label, position not given here
notes: as for B9

Target: T3, TDRD3 (aa 520–633) (human, UniProt Q9H7E2 520-633)
T3 construct: cloned into the pET28-MHL vector; also called Tudor domain-containing protein 3; source: E. coli BL21 (DE3), purified (Ni-NTA, size exclusion chromatography)
Test: ITC; 20 mM Tris pH 8.0, 200 mM NaCl; 25°C; one-site binding model
Conditions: both partners purified

binding result | Binder
binds | B1

Target: T4, SMN construct covering only the Tudor domain (residues 82–147) (human, UniProt Q16637 82-147)
T4 construct: Survival motor neuron protein (SMN), human, residues 82-147, only the Tudor domain; also called SMN Tudor domain; source: E. coli BL21 (DE3), purified (Ni-NTA, size exclusion chromatography)
T4 sequence (Q16637 82-147): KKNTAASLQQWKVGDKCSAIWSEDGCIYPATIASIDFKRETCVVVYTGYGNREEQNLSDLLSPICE
Test: fluorescence polarisation; fluorescein-labeled peptides; 20 mM Tris pH 7.5, 50 mM NaCl, 1 mM DTT, 0.01% Triton X-100; 25°C; one-site binding model; Kd the average of three independent measurements
Conditions: both partners purified

Kd [µM] | Binder
46 | B2

Target: T3, TDRD3 (aa 520–633)
Test: as above
Conditions: both partners purified

Kd [µM] | Binder
> 500 | B3
> 300 | B2
> 150 | B4
> 400 | B5
> 500 | B6

Target: T5, SMN (aa 80–170) (human, UniProt Q16637 80-170)
T5 construct: Survival motor neuron protein (SMN), human, residues 80-170, covers the Tudor domain; cloned into the pET28-MHL vector; also called Survival motor neuron protein; source: E. coli BL21 (DE3), purified (Ni-NTA, size exclusion chromatography)
T5 sequence (Q16637 80-170): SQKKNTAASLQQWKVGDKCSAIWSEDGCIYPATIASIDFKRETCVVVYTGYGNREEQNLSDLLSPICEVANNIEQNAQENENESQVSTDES
Test: as above
Conditions: both partners purified

Kd [µM] | Binder
> 300 | B3
> 150 | B7
> 300 | B8
34 ± 2 | B2
> 400 | B9
97 ± 3 | B4
94 ± 4 | B5
> 500 | B10
> 200 | B11
> 300 | B12
> 150 | B6

Target: T1, SPF30 (aa 65–150)
Test: as above
Conditions: both partners purified

Kd [µM] | Binder
> 500 | B3
> 200 | B2
> 400 | B4
> 500 | B6

Target: T2, SND1 (aa 650–910)
Test: as above
Conditions: both partners purified

Kd [µM] | Binder
> 300 | B8
56 ± 8 | B5
> 300 | B11
> 500 | B12
